Biological target: SAM-6 Receptor (SAM-6/R) glycoprotein, about 80 kDa Grp78 variant of tumor cells (human) (UniProt P11021)
Experiment: FACS on BXPC-3 cells transfected with Grp78 siRNA

Sequence of SAM-6 Receptor (SAM-6/R) glycoprotein, about 80 kDa Grp78 variant of tumor cells (human) (P11021 18-654, change not shown): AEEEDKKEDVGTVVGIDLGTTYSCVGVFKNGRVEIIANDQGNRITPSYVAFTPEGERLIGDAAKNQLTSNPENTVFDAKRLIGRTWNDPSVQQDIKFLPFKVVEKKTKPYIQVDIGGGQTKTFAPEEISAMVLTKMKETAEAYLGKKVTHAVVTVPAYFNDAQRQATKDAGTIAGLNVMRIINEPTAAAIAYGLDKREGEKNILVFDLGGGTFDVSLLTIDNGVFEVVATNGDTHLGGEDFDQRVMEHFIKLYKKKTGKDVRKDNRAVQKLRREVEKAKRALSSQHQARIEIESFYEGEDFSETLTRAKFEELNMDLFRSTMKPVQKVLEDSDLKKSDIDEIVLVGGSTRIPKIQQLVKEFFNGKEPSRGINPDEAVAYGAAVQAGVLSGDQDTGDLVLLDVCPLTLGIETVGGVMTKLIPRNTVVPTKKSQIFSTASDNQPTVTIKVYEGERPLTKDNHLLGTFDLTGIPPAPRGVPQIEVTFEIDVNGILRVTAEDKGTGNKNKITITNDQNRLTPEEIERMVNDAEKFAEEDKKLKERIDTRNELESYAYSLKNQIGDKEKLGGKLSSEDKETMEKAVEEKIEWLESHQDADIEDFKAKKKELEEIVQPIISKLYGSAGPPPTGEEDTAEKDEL

## anti-GRP78 antibody clone ET-21 (Sigma)
  % reduction of binding after Grp78 siRNA transfection: 76%

— US20110207917A1
